The source of these data is patent US20080201790A1, “Method and product for regulating cell responsiveness to external signals” (priority 1993, published 2008).

In this test the target is GST-Ras^V12(GTPγS) agarose (UniProt P01112). Nature of the test: GST-Ras^V12 agarose pull-down from COS cell lysate, anti-MEKK immunoblot. (In general: A western blot detects proteins with antibodies after separation by electrophoresis.)

B1: MEKK1 (protein encoded by p-MEKK1, transiently expressed in COS cells) (enzyme)
chain: MVTAVPAVFSKLVTMLNASGSTHFTRMRRRLMAIADEVEIAEVIQLGVEDTVDGHQDSLQAVAPTSCLENSSLEHTVHREKTGKGLSATRLSASSEDISDRLAGVSVGLPSSTTTEQPKPAVQTKGRPHSQCLNSSPLSHAQLMFPAPSAPCSSAPSVPDISKHRPQAFVPCKIPSASPQTQRKFSLQFQRNCSEHRDSDQLSPVFTQSRPPPSSNIHRPKPSRPVPGSTSKLGDATKSSMTLDLGSASRCDDSFGGGGNSGNAVIPSDETVFTPVEDKCRLDVNTELNSSIEDLLEASMPSSDTTVTFKSEVAVLSPEKAENDDTYKDDVNHNQKCKEKMEAEEEEALAIAMAMSASQDALPIVPQLQVENGEDIIIIQQDTPETLPGHTKAKQPYREDAEWLKGQQIGLGAFSSCYQAQDVGTGTLMAVKQVTYVRNTSSEQEEVVEALREEIRMMGHLNHPNIIRMLGATCEKSNYNLFIEWMAGGSVAHLLSKYGAFKESVVINYTEQLLRGLSYLHENQIIHRDVKGANLLIDSTGQRLRIADFGAAARLASKGTGAGEFQGQLLGTIAFMAPEVLRGQQYGRSCDVWSVGCAIIEMACAKPPWNAEKHSNHLALIFKIASATTAPSIPSHLSPGLRDVAVRCLELQPQDRPPSRELLKHPVFRTTW
B1 yielded a fold binding relative to GST-Ras^V12(GDP) of more than 5 fold.
